# Measurements reported in the RNAGym collection of RNA variant scans (doi:10.7554/elife.80360).
# B1: HDV Ribozyme (parent)
# chain: GGCCGGCAUGGUCCCAGCCUCCUCGCUGGCGCCGGCUGGGCAACAUUCCGAGGGGACCGUCCCCUCGGUAAUGGCGAAUGGGACCCA
# Variants of: B1
# Experiment: self-cleavage, relative activity (ratio to wild type); higher = more cleavage; co-transcriptional
row,Variant,self-cleavage
1,C3A C22A,0.0716
2,U37G C64G,0.0437
3,U79A G82U,0.374
4,G59C G68C,1.11
5,C3A G80A,0.175
6,C44G C64U,0.686
7,G10U G28C,0.0941
8,G40A A51C,0.984
9,A8U U12C,0.227
10,C14G U27G,1.14
11,C32G G39C,0.116
12,G10A A70C,0.48
13,G11U C85A,0.755
14,G6A G53C,0.928
15,C3A C48G,0.795
16,C14U G68C,0.733
17,A16G C61A,1.08
18,G59C A70G,1.06
19,C30G G82A,0.0941
20,C48G A78C,0.199
21,G52U U60G,0.978
22,C66U U72A,0.525
23,A43U C58U,0.462
24,G35U U65A,0.35

row,Variant,self-cleavage
1,A43C U47A,0.506
2,C44U G80U,0.148
3,C66U A77U,0.501
4,C30G C41U,0.0702
5,C14G C36U,0.375
6,C22G C33U,0.0268
7,C64A A83G,0.857
8,C24A C84G,0.563
9,G76C G81U,0.475
10,C26A G54C,1
11,G25U U79C,0.115
12,G2U C75A,0
13,C13U A51U,0.802
14,G5A U79C,0.0252
15,G29A G34A,0.131
16,G17C C24G,0.0898
17,G67U C85G,0.831
18,A16G G29A,0.252
19,C49U U65C,0.902
20,G5A C62G,0.0594
21,C3G C19A,0.0594
22,C24U G74U,0.143
23,G17A G54A,0.786
24,C33U C75U,0.0817

row,Variant,self-cleavage
1,G2U C86G,0.117
2,A43G C58U,0.415
3,G5U G29A,0.285
4,G17U C85U,0.614
5,U46C G54A,0.519
6,C18U A87C,0.692
7,G29C U47G,0
8,G1C G76A,0.26
9,G53C C86A,0.866
10,C4G G59A,0.198
11,C14U C48U,1.02
12,U37A C63U,0.339
13,C15A G53A,0.866
14,G25A A42C,0.0462
15,G5U A78C,0.185
16,C36G C63G,0.212
17,U72A C86U,0.957
18,G38C C58U,0.408
19,U27A G54C,0.707
20,C19G G28C,0.912
21,G38A A45U,0.107
22,G68A C86G,1.07
23,C15A G25U,0.0791
24,G10C G80C,0.104

row,Variant,self-cleavage
1,G1C C15U,0.0831
2,C18U G40C,0.281
3,C19U G34A,0.0468
4,A16C A71U,0.623
5,C15U C75U,0.227
6,C3G G80A,0.0911
7,C57A U72C,0.856
8,C30A C41U,0.328
9,G34C U37G,0
10,G1A C36U,0.244
11,C36A U46G,0.123
12,G81U,0.365
13,G11U A16G,0.309
14,G28A U79A,0
15,C4G,0.376
16,U23G C32A,0.0652
17,C30G U79G,0.128
18,C66U C86G,0.772
19,C32U A83G,0.501
20,U69A A70C,0.745
21,A8U C58G,0.582
22,C36G A70U,0.119
23,U9C U60C,1.11
24,G59A U69A,1.08

row,Variant,self-cleavage
1,A16C C57U,0.719
2,C36U G67U,0.431
3,A16C G59A,0.649
4,U47A C61A,0.886
5,G11U G67U,0.168
6,C14A G34A,0.185
7,U23C C44A,0.462
8,G6U A45G,0.403
9,C14A G67C,0.554
10,C24G C85U,0.107
11,C15U U37G,0.158
12,G74A G82C,0.249
13,G74A G82A,0.0656
14,G50A C63U,1.13
15,C13A U27C,0.594
16,G31U A70G,0.48
17,C48A C66U,0.988
18,C21U G59A,0.154
19,C19U U79G,0.0997
20,A42C A45U,0.306
21,U20G U47A,0.0831
22,G35A U72C,0.283
23,C3A A42U,0.0773
24,C33U G39A,0.182

row,Variant,self-cleavage
1,U23A A45C,0.344
2,C49G U79C,0.631
3,G40U U79G,0.243
4,U27G C64U,0.72
5,G11C U20C,0.0437
6,C30G G53U,0.103
7,C19A G31C,0.141
8,U46C U47A,1.08
9,A43G G73U,0.0755
10,C15U U46G,0.499
11,C63G A87U,0.71
12,A42G U79G,0.359
13,A56C U72A,0.95
14,C44A U46A,0.677
15,C24A A56C,0.966
16,G1A C18A,0.113
17,G6U C30G,0.0326
18,C4U C84A,0.712
19,C4A C85U,0.381
20,C36U U72C,0.102
21,G28A C30U,0.113
22,C24A G68U,0.776
23,G2A C26G,0.166
24,C13A G82U,0.904

row,Variant,self-cleavage
1,G74U C75G,0.13
2,U9G G17A,0.225
3,C4U G59A,0.589
4,C32U G67A,0.857
5,U47C C86G,0.675
6,G31A C64G,0.408
7,U23A A87C,1
8,U27C U69A,0.317
9,C13A G74A,0.101
10,C75A G76U,0.289
11,G11C G35U,0.271
12,A8G U37G,0
13,G10C G59U,0.815
14,C14A C49A,0.782
15,C14U G50C,1.11
16,G1A G25C,0
17,C58G U79G,0.776
18,U12C G40U,0.0627
19,C48U A87U,0.942
20,G17A C75U,0.138
21,C24G G40U,0.17
22,C13G G67A,0.138
23,G67U A70C,0.987
